Test results published in the domain aggregation screens of Martell et al. (2025).

Test: soluble fraction after stress (log2 fold change); higher = more stays soluble; pooled small domains, quantitative proteomics
Settings: stress: 75 degC
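Also: 20 min heating vs room temperature control held 20 min.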

Compared with “HMEKRIIMLEELKKQVYEANMELPRRGLITYTWGNVSGIDRESGNFVIKPSGVDYDKLKPEDMVVMDL”, “HMEKRRQEIVELVKRESEISFAELKQHFPEVSEVTLRKDLKYLDSTLQIIRIHGGAKSLPAAI” is lower in “soluble fraction (log2)” value: 0.249 for the first, -0.965 for the second.

Going from “HMEKTTTLFDETTNPGIIYIGKAMPTGSAISEAAAVWAIKTIDTTTDTEIKWADGVTTYTKVWNNRASYSY” to “HMEKVDAISQSILDVLKKNNGYLAVTDKSDPDEIYGLFQISKKTFKKAIGSLYRDRLISIEEEGIRLR”, the “soluble fraction (log2)” value rises from -0.872 to -0.496.

“HMEKVTAPMPGVINSIVKNVGDTVKRGDVVLILEAMKMENEIVAPKEGKIASINVAKGASVNAGDVLFSI” and “HMEKVTPEMIAEYNALAKKYNSNPEVVFKKKEIQRLKYIYSLMSEKQKETAEVFPNIPPPPPT” are within 0.2 log units of each other in “soluble fraction (log2)” value: 0.347 for the first, 0.162 for the second.

Going from “HMEKYNIIVDNEDNFRLDKIIALNMKDLSRTMIQEMINRGLVSVNGKITKASYKTKLNDQIEIMIED” to “HMELAALKILNSPIGKIAIGTSENGLVKLDILTSGQTRAEFSDLPKAHKLALDAADQLAAYF”, the “soluble fraction (log2)” value rises from -0.599 to 0.147.

Going from “HMELADNFAKLILTARESKGWTQAQLGQRMAETINVIKSAESGKPPADSVIRKFEMILGIELM” to “HMELDFLRLQIITGIHSGRLSNNEILMMYDTYSQKGGNSYVSRIVNDYVDENNIKEEGKRNARK”, the “soluble fraction (log2)” value rises from -2.06 to -1.5.

Compared with “HMELDREALSDGLRRLSQLLAEDDIESRTLFRELAPGLKEQLGDDAVEKLAGHISRYEFEQAGALLATSG”, “HMELIELTVTEEFEMARLDQFLAGHLTQSRTYIQKLIKAGQITINGNLITRVKVPVHYGDFILINIPDPE” is lower in “soluble fraction (log2)” value: -0.0504 for the first, -3.68 for the second.

First: HMELKFIGEAVNNPKRPLIAILGGAKVSDKIGVIENLLTKADKILIGGAMMFTFLKAEGKNIGTSLVED
Second: HMELLEVSVIIREADSTGWSAARQGMEQAAADLGAELRFLTLSQSNSAEEQRSLLAREVEGGADAVVLV
The “soluble fraction (log2)” value of the first is higher: 0.0754 for the first, -0.57 for the second.

Compared with “HMELNEMEAWSLVSKALRNGTYGAVEEFSRLPPTVQEAVGNPDNLRNWATSDYKAIETVIQSNFIKTY”, “HMELNILELKSKERKISLEDHLYIKSFNFDNETNEYFYRLAFNSSKDLKNFKATINNDKTISIINFEI” is lower in “soluble fraction (log2)” value: -0.0842 for the first, -3.67 for the second.

Going from “HMELPVNSIRVPDVVGLSLREAMQAMTDAGVPWQSVQAKGVGFVSRQSPEAGTVTQLRRVRLELKLF” to “HMELSPVDLGERLKIARETANFTQDAAAKAVGIARTTLVSIEKGQRTARLDEIQALSRFYGVSANALLR”, the “soluble fraction (log2)” value rises from -2.8 to -1.16.

First: HMELTDRQKQIIEIVKKQQPISGEKIASILGFARATLRPDFSLLTMSGILQAKPKVGYLINEE
Second: HMELVEVGDLTGLTVEQAENVLKNSNISISIDKYDESDKYEKDQIISQNPQNKKVKKGTAIHVVLSNGP
The “soluble fraction (log2)” value of the first is lower: -0.63 for the first, 0.527 for the second.

Compared with “HMEMKMGHIISKLRYESGYSQVELAEKIGITKGAVGMYETDKRKPDYDTLIKLADLFNVSTDYLLS”, “HMEMNDFETLRDMYLTGKIWNVGDIVEANGVRGKVIRKGTNYLSFVDEDNKVHKAWLYDIEE” is higher in “soluble fraction (log2)” value: -0.378 for the first, 0.291 for the second.

Going from “HMEMSLGEKLKQARLTKNFSQEYMAEVLQISQKTYSNFENNKTKPDFSQIEEISKVLETSILEFLT” to “HMEMTGAHLRKKIRAKGFTFQQIADAIGESKQNLSQILSTNNIKTGTLERIAAAMGESVSYF”, the “soluble fraction (log2)” value rises from -1.12 to -0.00766.

First: HMENDYTQAQFVQDLDSGVVREVIIIPNREAPTGYARVVFGDVVRELYATDIREVEALAREHGYEPTVED
Second: HMENFDNIFDQRLMPSLFIIRNINQAIENNNNNKFLLNSTISMKDKHWIEIHPHHLKLIISGYQT
The “soluble fraction (log2)” value of the first is higher: 0.343 for the first, -0.328 for the second.

First: HMENIEVDFGVGDTVSVIGGAWKDTVGVVQAMNPNKQSLTINVELFGRETPVEISFTDVQKM
Second: HMENINIRNMGIRAVEAAIISLSPDQRTFTWGATNKKLVTVPYEENPYSALAAFFKTDDGIEIYDAIEKRL
The “soluble fraction (log2)” value of the first is higher: -0.166 for the first, -1.08 for the second.

Compared with “HMENNNIAFSKFLEEVDSGRVVQVEIQGNNISGTLSDGSKFKTYSPNYPDLVSKLSEKNVSIIASPV”, “HMENPLVEVVVPVLNEERILKANIETLHHFLRTQPGFNFRITIADNGSTDKTQAIANDLTNSHAVIRV” is lower in “soluble fraction (log2)” value: 0.343 for the first, -0.151 for the second.

Going from “HMENPMIEQLKQFIEAQGLTQGQLAAKLGVSTATVNQYLQGKYKGDTAALDAKAAQLMARSREK” to “HMENRILIPTAENIGERLDRYISSELDAPRSQVQIWIDSGLVAVSGGLKPKNYRLREGDEIEVTIPDPV”, the “soluble fraction (log2)” value falls from 0.169 to -0.11.

“HMENRLREVRDEIATRHGILPTVFINDRVLMNIHSKKPKDVSQLWQVDGISDEFIMKYGPEFIAEYKKKAK” and “HMENRREYQKAIDYLSDQIRAGTLTVGSRLPTERAIAEALGISRNSTREALRTMENMGMIESKQGSGHYLT” are within 0.2 log units of each other in “soluble fraction (log2)” value: -0.119 for the first, -0.215 for the second.

Compared with “HMENTELIELRKKRNLSQSQLAELLDLTRNQIANYESGRRIPDQETKQIIAGFFEMPAEEIFAG”, “HMENTFNENLRRIRKEKKITQEQLAEFVGVSPQAVSKWEMNSFPDASLLPKIAEKLEVSIDELFGLK” is higher in “soluble fraction (log2)” value: -0.086 for the first, 0.205 for the second.

Compared with “HMENTVVMPNLLGKTMTEAKIELKDLSISITLKGSENSSQYAAGQIISQSVDSGTRVAVGSSVEVTIAGS”, “HMENVIYGINGPVVTVRNSRSFSMMEMVFVGNERLVGEVIGITDKITTIQVYEETTGLRPGEPVYGTGSPM” is lower in “soluble fraction (log2)” value: -0.843 for the first, -3.8 for the second.

Going from “HMENVRKTEWVTISNDKSQTRTTVYFESGNQKLDKHPQIQGFEYQRTYVEGGVKYYLFVEKGTKLDE” to “HMENYGEAITYIHGMIEDSSEKMLAASKALKVNANTLIKFMKDPYSVAAHIRDRIVENLANLEKAVKAI”, the “soluble fraction (log2)” value falls from 0.0189 to -0.254.

“HMENYYMPVVAGQSEQDAKSMLNAMKLSLSIQVQEQESDSVAKGLAIGTSPAAGSQIRKGSSVILYISKGA” and “HMEPALYRLFMAHPELNASAVARRLGIAQSLLAQYISGSKKPSPERERMILTEIHKIGEELATAS” are within 0.2 log units of each other in “soluble fraction (log2)” value: -0.844 for the first, -0.938 for the second.

First: HMEPAPPPAAPPADPELQKRIDKLVEYIGKNGPEFEAVIRDKQHDNPDYAFVFGGEGHAYYRYLLWLLPRP
Second: HMEPELLTTKQVASVMNIGEERARAILLSRGVQPVSLPWGKERKTLRWSRRAVMTVIDTLHAEAQAKAGV
The “soluble fraction (log2)” value of the first is higher: -0.466 for the first, -2.59 for the second.

Going from “HMEPLPDIPRGTRVSHQTAPADGDMPERRETGWTMTEPIRAQDGLAYVGVSVYGRGVVMLPVNSLSII” to “HMEPSAQEIANKLLGHVKSLGLPITGLSISYNSTSDLATVRGQVQSQADREKIILAVGNVDHVAKVDDQLT”, the “soluble fraction (log2)” value rises from -0.384 to -0.028.

First: HMEPSQEFSLADMVAYDLTGYPKSAALRAAVGASLGIGYGNAKQFVYRLNHYGISKDDFHRAAQEALDGL
Second: HMEPTAEQLKAIRQFASVNGRSWKSELRYLWETGAYHRAALGGADPGYLQQVRNQFGPGWLRAFKISK
The “soluble fraction (log2)” value of the first is higher: -1.1 for the first, -1.87 for the second.

Compared with “HMEPTPREIVVQQLGYRGLEVLGNAEYQFPKETQIIILKLAELISSGSVTETLEGGKLLALFRGVGINVR”, “HMEPVQPVMYSEFIESVERGEVVEATIQGDKIIATDRSGNRYTVVGSAKDPQLVGQLLERNVAFKFVEE” is higher in “soluble fraction (log2)” value: -1.55 for the first, 0.118 for the second.

Compared with “HMEQAMIVILKENPDRRQLEFLTGWLQKQQIGIHISEGAHQTVLGLVGDATRLDIDMLKQMEIVEDVKRVQ”, “HMEQGDTQQEIREKILNLLADGERHMITELKNIRTDQPIDDDKIVGKTLKTLLDEEEVYMDGSYIQLNG” is higher in “soluble fraction (log2)” value: -0.823 for the first, 0.653 for the second.

Going from “HMEQIGSIIKDIRKKNNLTQNEFASILGVTFQAVSKWENDKSIPDITILKDISNKFNVDLNYLISG” to “HMEQISVPIFTNDELVTFARSYSGELGYKIDDMAVLALYNRISNIQRLDQATTLTEVKDIVDEAVAKSE”, the “soluble fraction (log2)” value rises from -0.405 to 0.096.

Compared with “HMEQLESAVASRTLIGQAQGVIMERYGLSAPNAFSVLSRISQDSNTKLAEVAQQIVATRRIPG”, “HMEQLNKNIKFDNFLESLNFINKVSEVAEEENHHPDLKFGWGYADITIFTHAIKGLSEGDFVLAAKIDVI” is higher in “soluble fraction (log2)” value: -0.093 for the first, 0.19 for the second.

Compared with “HMEQMSLISKKKGERIDKFLGENLGDLSRSYIQKLLKDGLILVNGKKVKANYKLNEGDQIDVEVPDP”, “HMEQMSPYPNPSKGKIQFHNQEPMDIKVFNSLGQIVFEQRILSRAILDLSRLSPGQYIVQAGEQKNIWIK” is lower in “soluble fraction (log2)” value: 0.327 for the first, -1.64 for the second.

First: HMEQPPVPSVSITAALGSAVARRLAPHGFQKMPDLVDAYRAGKLAQISGIGGTTLDLIREWLTANARQQ
Second: HMEQQEFIVPHDSEGQRLDLFLVSVLGTHSRSQIRKLIVNGHVKLENRAPRPNLPVRAGESVVVSMPEPT
The “soluble fraction (log2)” value of the first is higher: -0.441 for the first, -0.849 for the second.

Going from “HMEQQSIYLENRERMTINQVIDVDAFDEETLWANLKEGAVEISGSGLHIEKLDLAEGVLIVSGIIRAFAYV” to “HMEQQVDYTQFIQDVRQGQIREVDVDRNGVINGIKRSGENFVTVIPGGYDRDLINDLVKQGVNATGEL”, the “soluble fraction (log2)” value rises from -0.856 to 0.25.

Going from “HMEQVKFFDAKVITTPPNRLKTRYTPAGNLRPEADWLQSGAIVPVYETSGAGWYRIGYQTWASAEWMQRLD” to “HMEQVSDPALLERYAKEVVAASPKAVADYQAGNAKAFQALVGQMMKRTKGKGDPALIREILQKL”, the “soluble fraction (log2)” value rises from -2.8 to 0.0645.

First: HMEQVTMSNFLDKWGTSTKSPNAWYTSLSPMQKAEAKLLKEESGLTWNKWYEKNIYVGDGTN
Second: HMERAYGVRVSLRLDDPFRTLLGADWSRTHWFASAEERDAALLEMSRKHEFSRPGDQPALVYEKVQN
The “soluble fraction (log2)” value of the first is higher: 0.985 for the first, -1.26 for the second.

First: HMERDVNQLTPRERDILKLIAQGLPNKMIARRLDITESTVKVHVKHMLKKMKLKSRVEAAVWVHQERI
Second: HMEREQNILQGREVVERELRRLGLAEAYTVSDIAKALKFDDEEQFLAKVGFGDIQSRQISGAIALMEKN
The “soluble fraction (log2)” value of the first is lower: -1.55 for the first, -0.0753 for the second.

First: HMERFLENAIPVLGETGLDIKSATEDFENALIRQALHLSGGNKNRAATLLGLKRTTFVEMLKRKSL
Second: HMERFMEFVITDTQQGQRLDVVLTETTEHLGSRSHMQRSIRAGLVSIDGITTTRASTKVSSGQIIRVEPT
The “soluble fraction (log2)” value of the first is higher: -1.12 for the first, -1.42 for the second.

Going from “HMERGEFQKLGRATLEQTLARAGKTLAEVSLKAMLETFAFAAEEDLYEALGRGRVSAAKVGETLFPALKGR” to “HMERKMKNNISDQTTYDTDKILNFNGKGYLNGLVIPNNYQIKEEGYYVFRQVALDGREQILYFTIQDLS”, the “soluble fraction (log2)” value falls from -0.85 to -1.98.

First: HMERLSVSMGDMVVFVRDAVEAFRGLVKEKGITLTFESKVEHFYMNYDHDKVYKVVNNLLSNAVKFT
Second: HMERLTVVPELLKRSLSEAQPLVTSARLRLEVSGGAPEDTSRAIVVGQKPPPGTRVQVGTTVIVTVQIQRP
The “soluble fraction (log2)” value of the first is higher: -0.145 for the first, -0.534 for the second.

Compared with “HMERPYNGKQMEYHEGGVEKKETLFVEGGLSRVIQWDESGQKRSEVNISPTGVRREQYWDSSGKAIAKPS”, “HMERQAEAWTNRASALISLGRDEEALEAADRAIELDPRLSKAWIDRSTALSNLGRNDEANEAIQMAMFL” is lower in “soluble fraction (log2)” value: 0.14 for the first, -0.12 for the second.
